Source: the domain aggregation screens of Martell et al. (2025)

Assay: soluble fraction after stress (log2 fold change); higher = more stays soluble; pooled small domains, quantitative proteomics
Conditions: stress: 50 degC
Procedure, shortened: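 The stress applied to every library was 50°C. These custom libraries of small protein domains were pooled and measured at high throughput with quantitative proteomics as the read-out. Aggregation propensity is expressed as the base-two logarithm of the fold change in how much of each protein remains soluble. The higher the value, the more of that protein stays in solution.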

## HMPPTSADGIEKYLASGMIRGVGPVYAKKLVSAFGDKVFDIIEAAPHQLQEVEGIGRVRAASILAAWAEQ
  soluble fraction (log2): 0.134

## HMPQLEDLEPLDSSGMVRRDGPHLVLAVGRHRGRHLEEVRDSDPSYLHWLLSPKGIEDIQAKEDIKTYLNL
  soluble fraction (log2): 0.0519

## HMPQLVGDVDGDGRVSVTDGEWIRASYGALPWYAGWRAAADLDGSRKIDVVDLELLRTKMGN
  soluble fraction (log2): -0.191

## HMPRIYSITINPEKIRTVIGPGGKVIKDITAKTGTKIEIDDSGKVDIFSPDEEHARMAVEIINTLTEE
  soluble fraction (log2): 0.14

## HMPRKYFPFYFTFRETAQTMPPRLRAVFYEAIIEYGTTGKEPTLPKSIAGYWPLVKPTLDSAKAHYDAG
  soluble fraction (log2): -0.831

## HMPRNEIQRSVLNELVQWIKNNLAKKLTMQALSRFSGYSEWHLFRLFRHYFNMSPMAYIRQQRMQ
  soluble fraction (log2): -0.265

## HMPRPRIHSVVRGDTLYGISRQYGVAMSKLASLNGLKSPYRIMVGRSLRLPSAIEAERDRTAREVVQ
  soluble fraction (log2): -1.45

## HMPRVLSSYTLTLRHQPTAEAVALVRTLLSPAGSVEVKEDGRTLVVRDELAALSRIVGALRSFDH
  soluble fraction (log2): -0.404

## HMPRVSIEKIKKVVELLKHNPDYTYSKIGNIVGIGRKTVSGINNGKLYTDLVEELGINEFPI
  soluble fraction (log2): -0.292

## HMPRYQQIARQLKTAIEHGELKPGARLPSSRTWSQELGISRSTVESAYTELVAQGWLERRGQAGTFVSAQL
  soluble fraction (log2): -0.749

## HMPRYSGMFAAWLHKALARMGKSMSDSARSAFTERVELDYSSANNELQKLSLLVGDRKVITEADVMRAIG
  soluble fraction (log2): -0.292

## HMPSALGDKIRAARKALKLSLEDLAEKVSSSKSYMWELENRDEPNPGADLLMRIAAALNVTTEHLLGP
  soluble fraction (log2): -0.0736

## HMPSDLQATLRAVQGMLQGVEGVDARLAGQRILLEGDSADARARERAAAIAGIFPGVVIDFVG
  soluble fraction (log2): -0.155

## HMPSEAVQNIIGNVKSKRRVATIGQARGLASNVIKEGKFDNVSNTAMVNRLIDLGIISNSIGYQ
  soluble fraction (log2): 0.115

## HMPSEQGANKARDIIFRHHMKVDVWVGSWENARNYAEQAIKQGVKVIISRGGTAALLRHSLDTAIIKVR
  soluble fraction (log2): 0.0222

## HMPSGLFEPIKKSELSIESIDLLKDQIRAFKQADIRITFGFLLDLITKGENPAYVNASKLFEQAWER
  soluble fraction (log2): 0.0685

## HMPSPSTLAKVDPFLLVTNADSLLMARPDDSELRAAIITAHINLAKTNNSVDHYKEVLKIEPQNALANYN
  soluble fraction (log2): 0.0175

## HMPSPTPEQVLKAFTDAAMQKNTVEELKQAFAKAWKMLEGTPEQHKAQDVYNIRRDELEGAA
  soluble fraction (log2): -0.173

## HMPSSIEGIEKYLGSGMIRGIGAVYAKRLVKQFGKDVFDIIEETPERLREVEGIGPIRAARIISGWADQ
  soluble fraction (log2): -0.41

## HMPTITSPMVGTFYRAPSPGAAPFIEVGDTVKKGQVIGIIEAMKLLNEVEADKDGVVQAFAAENGEL
  soluble fraction (log2): 0.262

## HMPTLNIVDGHIAASDGVRILSIHNVTGRRYATSSKLPAGIYIVVLMPAKAETPLTVKVIVEA
  soluble fraction (log2): -1.6

## HMPTMTDIPIKIIRSRRRTLAIEVREGGEVIVRAPLYSRKAEIDAFVKAHENWIITKYNLMITKQN
  soluble fraction (log2): -1.74

## HMPTPRVPMSKQRQILQLLQDGHLSTREIAAALHISKTSVGDIAKAARLAGLDWEAASKLSDEELSARIYK
  soluble fraction (log2): -0.00175

## HMPTSPKANFLKELPQEFTRKQAVTIGDKLNIKERTVDNYLAKLEQAGYLVKPKAGYYQKIKS
  soluble fraction (log2): 0.128

## HMPTTTFENLPDAKKKTIIAALLKEFSQSPLSKAQVAPIVKESQIARGAFYKYFVDLTDAYTYLYRQ
  soluble fraction (log2): -0.204

## HMPTVLKQGSTGQEVKELQQALSKLGYRVTVTGEFDTATHYGVVRFQRKHRLTIDGIVGPQTLSKIRAHQK
  soluble fraction (log2): -2.86

## HMPVAPTYALTVKTDPPSANVRLLNSPTPYQPGVRLPSGNYDIEVTQSGYATRKESVRIADRDVALNIAL
  soluble fraction (log2): 0.163

## HMPVASNRDVNLDIGERVFVQEWAPNRTARVQYRGSPWEARLAPGAPAAAGEHRVSAVEGNWLVLEPA
  soluble fraction (log2): -0.0102

## HMPVEFVKISIKPGHPWENQFVRDIVSLPDLLMVLILRGEERIIPNGNTKILVGDKIVLSALSPG
  soluble fraction (log2): -0.779

## HMPVEHVWHIAENGQTSGPYSKARMGRMAQEGQLTRDTHVWTPGQDGWMRAGDVTELAQLFT
  soluble fraction (log2): 0.0486

## HMPVFSLTPRELEILEWMSTPNTYRQIAAQLSVSEETVRSHAKNILEKMRQPNRAQAVLAAVKMGLIKL
  soluble fraction (log2): -0.819

## HMPVISGQDLRVLIRDTGRERDQGISFLDDGTMVVVEDARRLIGQEVTATVTRVHQTQTGRIVFAHLSN
  soluble fraction (log2): 0.0684

## HMPVPSPAEQTATQLANIERHTGITVDGWTRAIAEAGAAKHGEIVAWLKQQGLTHGNANALAHAVRARQSG
  soluble fraction (log2): 0.27

## HMPVQSNRDALLDIGQTLQVQAWDAQGSARVSYRGSDWTAEFRGPGAAAPGLHRIIAVQGNRLIVEPA
  soluble fraction (log2): 0.174

## HMPVRIYEISKKLGLENKEVLATAKSLGIAAAKVPSSSLDKITAEYLEEEILKSHPEVAARLK
  soluble fraction (log2): 0.329

## HMPVYEEEVPAALDGQRLDRVVAMVTGLSRSEVGALLAAGAVTVDGTTPAKGSVRLAAGSIVSVTVS
  soluble fraction (log2): -0.145

## HMQAATGVVTASVLNIRQGPGTNYTKVGSLLKGAQVEIVGQNGAWSKIRLKSGITGWVNSSYLKTST
  soluble fraction (log2): -0.0664

## HMQAGPEDIIRAKLKTAMPEAQIISIRPTPAGLYQVNAKGYESVFVTADGRYLFQGDLLEIQGDRIVNL
  soluble fraction (log2): -0.123

## HMQAKNGTVTGSVVNVRGGAGTQYAVKGKASRGTKVTILGQQSSWLNVRLDNGVTGWIHADYVQISE
  soluble fraction (log2): 0.463

## HMQAPHLALSPREFQVLQGLLAGDALDIIAERLHLSAKTVSNHQTLIRQKLGVGNAVELLRYAQLHRL
  soluble fraction (log2): -2.15

## HMQAPIFMNETDGKWYFREKYLNDNHEIAYRVHPEGYDQMEDALRNSVNALNEFAAEMKELRKQV
  soluble fraction (log2): -0.0683

## HMQAPVVNHDLIKSFERQWREIKATAKGKVRSVNLSDARSILQSFLNTLQKGPGTDSLISSVQNELSLIA
  soluble fraction (log2): -0.00186

## HMQARDQNVDEGKALLEKEFSRLALENLDRDKLANAVNYPTRDDMYAAIGAGDLRVGQVLHQAQQLF
  soluble fraction (log2): 0.142

## HMQASTGNVNTETLNLRKEASTSADILKLLSQGDEVEIVSESNGWYKVKYKDTEGFVSKEYITVN
  soluble fraction (log2): 0.245

## HMQATETFSLIVPMSSAGNRLDVVLSELLPNFSRKKIQDAIKNGDATLNGKAPKIRDKVYGGENITITLIL
  soluble fraction (log2): -0.432

## HMQAVDPLELRAGDFVVHEQHGIGRYVEMVQRTIGGITREYLVIEYAPAKRGQPNDRVFVPTDTLEQVS
  soluble fraction (log2): -0.514

## HMQAVKQIKVERGMTLEKIAQSEFGDSTRWGEIVEVNNLRAPYISDDPTETRDGVLKPGSNLLIPIP
  soluble fraction (log2): 0.094

## HMQDEAQLSMSNKYIFEGNSIVKDNFIEAEKKYRLGVSAKPNNAVGSYNLANAYYNSKLYDEAMLRLL
  soluble fraction (log2): 0.272

## HMQDEREEIAVEDVVGMPLWQARKVIADQGFRVLDDGAGDIVIAQMPSGGGKLIEGGQVMLYTYTD
  soluble fraction (log2): 0.186

## HMQDFEEILKNAKIEDFKHTQTGEDLKVLKIEDKIEDFKGFNAYLVKNQIAYYSKFARGFVVKNIEKLQGV
  soluble fraction (log2): 0.0429

## HMQDFEQNLFDGKSIYDRMLSKFSLHNVDVKQLVAHFKRKDTEQFFADIGRGLITSAQMLGFLQT
  soluble fraction (log2): -0.289

## HMQDLVAVPALTGLTENDAINKAKANNLIAVVSEYKTENSVEPGKVLEQDPESSTEVKKGTIIKLVVS
  soluble fraction (log2): ≥ 0.62

## HMQDQVTLIVQVNGKLRGQISISTDATKELIEQTALANENVQKFVDGQSIKKIIIVPGRLVNIV
  soluble fraction (log2): -1.12

## HMQDRDKNVPAGKELLDNEIARLNMSLKQVEQFALPRYNLKTLEDLYSGIGSGDIRLNHLINFLQSKLI
  soluble fraction (log2): -0.135

## HMQDREIHIHAGREVLEKELSRLSLHLKNTNLQEYAARFNVKTAEDILAGIGAGDIRPAHVVNLIADKL
  soluble fraction (log2): 0.0629

## HMQDSSGENNPQSKLTQQQVDLLMKDLKETNVEFDKLAEKYNVSIKTIRNVNTGIAWRKNDITYPIREP
  soluble fraction (log2): -0.204

## HMQDTQAEEGETLLDALRRIHPESSTGTLRRMLTQGRVQLDGDSVHAAKTVLSAGQRVEVVAR
  soluble fraction (log2): 0.0446

## HMQDTTLTSQILRVPSSVNINDLANVLKSLAGKNTVVAPYKAANTIIITGYAPNVRRVLSLANELIPRLDV
  soluble fraction (log2): -0.53

## HMQEAGLITQRIREMREKENWTQEYMAEQLGMSENGYAKIERGESNLSLKRLQQIADIFEVESAELLK
  soluble fraction (log2): 0.0493

## HMQEDKSKYLFQRGTAITVLRPAGIVRIGKERVDAVSNGSYIDRGVAVRVIEVEGTRVVVEPVPE
  soluble fraction (log2): 0.13

## HMQEEMIRGDIKLNTVMQTVHLAVGTETERNWQPVETTAKEFELLKLLMENPGVTLKKEYLFHMLI
  soluble fraction (log2): -0.102

## HMQEESISWKEFLELDIIGDKKKRLKVYDLFHLGYGNAKTLFKRLNMVGISREMIEKELENEGY
  soluble fraction (log2): -1.32

## HMQEKIREVANRIRELRESLEVSPEEMADHLKVTIGTYIEYERGEADIPASVLFGIAHRLNVDMAVLL
  soluble fraction (log2): 0.142

## HMQEKLELIIPVSSIGKRADVAIQDLLSSYSRAKIQEWIKSGFILLESKKISPKDIFMGGERVFIDIQQDE
  soluble fraction (log2): -1.41

## HMQELVPGKVFEGTVTEMKNGQVTLGLSDGKTISARMEQGVSLAKGQPMLFEVKSNTGEQIAIRPVVL
  soluble fraction (log2): 0.169

## HMQENKVLEGKVLEKKKKKVFVDLSPFGVGVIRGVNYLEAKNELKDIEEGDNIKVRVLEIDNENGFIELAL
  soluble fraction (log2): 0.271

## HMQERQREGFVQQLRGKYSGQVVMRLFPELQGKALGEFMRKFEAQWEDHEAVLAAMEAHEIESRLKVFK
  soluble fraction (log2): -0.965

## HMQETALANFETNEGVQKVKQYVQENVPSLRGSNIVGVWTSYTPEGLTNYRTRFLTQDGQFVEVNLAYQ
  soluble fraction (log2): 0.036

## HMQETIDVAALRVGMFVHLDLGWLAHPFPLSSFRISSEDQISTIRALGLKRVRWSSQHSELG
  soluble fraction (log2): -1.11

## HMQETKDEGAQVLLNKINALVAAVQGQIITPEEAAIKLATDGDLDLDVDARVAAIEEFNKKLSEAQNN
  soluble fraction (log2): 0.0497

## HMQEVILEKIQLTYLSADKLSKMAEQFSIPVKMYWVDENPMMLMVMGNESDIATFKKVLTQIDIPENKS
  soluble fraction (log2): 0.0714

## HMQFHQDNYALEFIRDLQPVDGAIILSRFKQFDLVELEKAKKIKFSDEHMAWTLYDYDIKKIN
  soluble fraction (log2): -2.3

## HMQFLKPQDVLFLLKLVVLKGPASIFPAVPESLGLSKAEVHNSAKRVRGARLLPHDSWNPLRKNLLEFL
  soluble fraction (log2): -0.148

## HMQFQVHEIKGKEYYIHVVEKGNTLYAISRMYSVPIETLKEENPRLNTTELTIGDRLLIPLDEVKRKNIE
  soluble fraction (log2): -0.128

## HMQFYSGLEARLMDPNTPEVFDDPISLMAFLQQKNISRVELEDNLLLPYLKEMAGQPIPKAELLEIIRK
  soluble fraction (log2): -0.475
